Measurements: patent publication US20250304666A1 (ALCHEMAB THERAPEUTICS, published 2025)
Substitutions are numbered along the chain they refer to. Each block holds one binder with its values, some of them ahead of it.

What was measured:
reduced CFHR1 = biological target: T1, reduced CFHR1 (UniProt Q03591 19-330, limits assumed); experiment: ELISA, reduced antigen
T1 sequence (looked up): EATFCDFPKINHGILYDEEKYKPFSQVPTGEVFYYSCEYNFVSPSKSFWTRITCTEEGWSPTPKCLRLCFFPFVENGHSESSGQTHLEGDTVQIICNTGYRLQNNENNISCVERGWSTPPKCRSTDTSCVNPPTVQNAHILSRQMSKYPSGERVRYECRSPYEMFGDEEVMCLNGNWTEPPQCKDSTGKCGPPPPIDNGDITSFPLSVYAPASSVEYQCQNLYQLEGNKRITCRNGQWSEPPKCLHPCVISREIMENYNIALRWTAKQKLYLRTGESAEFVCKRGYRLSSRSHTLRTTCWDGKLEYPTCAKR

reduced CFHR2 = biological target: T2, reduced CFHR2 (UniProt P36980 19-270, limits assumed); experiment: ELISA, reduced antigen
T2 sequence (looked up): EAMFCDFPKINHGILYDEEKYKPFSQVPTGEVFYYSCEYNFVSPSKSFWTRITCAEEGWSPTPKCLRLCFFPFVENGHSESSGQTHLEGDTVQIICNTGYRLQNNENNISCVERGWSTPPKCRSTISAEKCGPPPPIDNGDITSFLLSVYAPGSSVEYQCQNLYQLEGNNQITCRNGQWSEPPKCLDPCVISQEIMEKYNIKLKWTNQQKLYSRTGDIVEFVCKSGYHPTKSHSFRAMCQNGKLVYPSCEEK

reduced CFHR3 = biological target: T3, reduced CFHR3 (UniProt Q02985 19-330, limits assumed); experiment: ELISA, reduced antigen
T3 sequence (looked up): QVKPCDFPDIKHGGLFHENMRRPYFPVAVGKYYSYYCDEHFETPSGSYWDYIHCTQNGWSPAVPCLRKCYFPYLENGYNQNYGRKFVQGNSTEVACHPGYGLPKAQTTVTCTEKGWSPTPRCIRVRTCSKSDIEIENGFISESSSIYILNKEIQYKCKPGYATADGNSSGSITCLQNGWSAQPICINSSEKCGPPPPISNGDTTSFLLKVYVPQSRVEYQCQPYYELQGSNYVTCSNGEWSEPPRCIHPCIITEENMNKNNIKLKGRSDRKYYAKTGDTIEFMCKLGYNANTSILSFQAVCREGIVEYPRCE

reduced CFHR5 [1] = biological target: T4, reduced CFHR5 (UniProt Q9BXR6 19-569, limits assumed); experiment: ELISA, reduced antigen
T4 sequence (looked up): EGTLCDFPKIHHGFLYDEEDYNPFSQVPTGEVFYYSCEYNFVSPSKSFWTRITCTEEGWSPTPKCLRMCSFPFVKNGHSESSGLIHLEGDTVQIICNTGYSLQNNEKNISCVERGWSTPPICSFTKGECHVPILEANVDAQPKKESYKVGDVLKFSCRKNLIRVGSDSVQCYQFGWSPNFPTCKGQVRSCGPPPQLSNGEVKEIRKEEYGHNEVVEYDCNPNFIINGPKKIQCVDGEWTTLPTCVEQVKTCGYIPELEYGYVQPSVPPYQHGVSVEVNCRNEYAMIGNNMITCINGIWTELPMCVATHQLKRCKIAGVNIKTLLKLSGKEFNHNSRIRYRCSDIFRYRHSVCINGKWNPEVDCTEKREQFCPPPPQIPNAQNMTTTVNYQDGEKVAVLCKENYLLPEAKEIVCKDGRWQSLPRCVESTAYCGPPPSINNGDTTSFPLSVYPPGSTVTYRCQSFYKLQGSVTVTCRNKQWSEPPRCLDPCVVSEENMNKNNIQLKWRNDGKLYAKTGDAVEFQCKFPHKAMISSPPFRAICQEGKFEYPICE

reduced CFH [2] = biological target: T5, reduced CFH (Homo sapiens (Human), UniProt P08603 860-1231, limits assumed); experiment: ELISA, reduced antigen
T5 construct: also called CFH (reduced)
T5 sequence: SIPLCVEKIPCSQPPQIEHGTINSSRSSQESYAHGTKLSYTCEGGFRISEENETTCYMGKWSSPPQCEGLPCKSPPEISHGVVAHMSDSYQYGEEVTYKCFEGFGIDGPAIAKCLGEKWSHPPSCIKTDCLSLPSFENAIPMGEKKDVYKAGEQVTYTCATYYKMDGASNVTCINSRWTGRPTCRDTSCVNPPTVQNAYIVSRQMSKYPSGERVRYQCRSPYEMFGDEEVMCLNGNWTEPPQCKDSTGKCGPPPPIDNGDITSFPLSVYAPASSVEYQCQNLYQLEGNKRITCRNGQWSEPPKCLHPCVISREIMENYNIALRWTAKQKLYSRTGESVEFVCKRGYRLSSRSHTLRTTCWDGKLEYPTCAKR

reduced CFH [3] = biological target: T5, reduced CFH; experiment: ELISA on reduced CFH after heating the mAb (70 C, 1 h, as Figure 16)
reduced CFHR5 [4] = biological target: T4, reduced CFHR5; experiment: ELISA on reduced CFHR5
[5] = biological target: T6, immobilised biotinylated full-length CFH (reduced) (Homo sapiens (Human), UniProt P08603 19-1231, biotinylated; reduced with 20 mM dithiothreitol); experiment: BLI (Octet), biotinylated reduced CFH on streptavidin sensors, antibody 33.3-2.08 nM as analyte, 1:1 global fit; lower end of the printed KD range
T6 construct: Purified endogenous full-length CFH immobilised by biotin on streptavidin BLI sensors; also called immobilised CFH; surface immobilised CFH
Method: Biolayer interferometry (BLI, Octet 96Red) was used to measure binding kinetics of the interactions between anti-CFH antibodies and CFH. The CFH used for kinetics measurements was purified endogenous CFH was biotinylated and reduced with 20 mM dithiothreitol (DTT). An irrelevant protein was treated in the same way as a negative control reference. The CFH or irrelevant control ligands were each immobilised via the conjugated biotin onto a set of streptavidin (SA) sensor tips. Sensors were dipped into reference kinetics buffer (Phosphate buffered saline (PBS), pH 7.4, 0.05% Tween-20, 2% w/v not fat milk powder) to achieve a steady baseline. Association was measured over 300 s by dipping the sensors into an analyte concentration series of anti-CFH antibody (33.3-2.08 nM in kinetics buffer) as well as a no analyte control (kinetics buffer only). Dissociation was measured over 1500 s by dipping the sensors into kinetics buffer only. Baseline, association and dissociation steps were all measured with sensors shaking at 800 rpm and at a temperature of 23° C. Data was analysed with Data Analysis HT 11.1.0.25 software. Data from reference sensors and analyte control were subtracted. Data was corrected by aligning y-axis to average of baseline 5 s before association, inter step correction aligned to start of baseline and using Savitzky-Golay filtering. […]

- fold change vs isotype at 1 ug/ml (reduced CFHR1): 23.8 fold
- fold change vs isotype at 1 ug/ml (reduced CFHR2): 10.7 fold
- binding result (reduced CFHR3): no binding (tested: 1 ug/ml)
- fold change vs isotype at 1 ug/ml (reduced CFHR3): 0.9 fold
- binding result (reduced CFHR5 [1]): no binding (tested: 1 ug/ml)
- fold change vs isotype at 1 ug/ml (reduced CFHR5 [1]): 1 fold
- fold change vs isotype at 1 ug/ml (reduced CFH [2]): 17.6 fold
- Harsh Heat challenge ELISA value (reduced CFH [3]): 0.04
B1: ATL4717 (antibody, human IgG1, kappa, V domains shown)
VH: QVQLVESGGGMVQPGRSLRLSCAASGFTFSIYGMHWVRQAPGRGLEWVAVMSFDGKTKYYADSVKGRFTISRDNSKNTLYLQMNSLRRVDTAVYYCAKGGATAAVFDSWGQGTLVTVSS
VL: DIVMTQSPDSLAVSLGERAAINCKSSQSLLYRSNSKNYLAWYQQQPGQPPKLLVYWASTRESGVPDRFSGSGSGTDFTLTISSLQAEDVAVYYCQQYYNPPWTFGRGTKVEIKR
notes: Human IgG1; also called ATL0004717; ATL04717

- fold change vs isotype at 1 ug/ml (reduced CFHR1): 23.1 fold
- fold change vs isotype at 1 ug/ml (reduced CFHR2): 8.4 fold
- fold change vs isotype at 1 ug/ml (reduced CFHR3): 1 fold
- fold change vs isotype at 1 ug/ml (reduced CFHR5 [1]): 1.1 fold
- fold change vs isotype at 1 ug/ml (reduced CFH [2]): 18.1 fold
- binding result (reduced CFHR5 [4]): no binding (tested: 100 ug/ml)
- Harsh Heat challenge ELISA value (reduced CFH [3]): 0.49
- Kd [5]: 0.402 to 1.46 nM
B2: ATL5170 (antibody, human IgG1, kappa, V domains shown)
VH: B1 VH with M11V, I31N, R43K, M51T, R88A, V89E, F106L
VL: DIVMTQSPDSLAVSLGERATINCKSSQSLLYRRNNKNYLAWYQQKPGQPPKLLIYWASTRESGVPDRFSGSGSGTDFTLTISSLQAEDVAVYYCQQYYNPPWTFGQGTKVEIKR
notes: IgG1; also called ATL_0005170
